We go through 20 molecules from US20140179896A1 (published 2014).

The term Kd denotes the concentration at which binding is half-saturated. In general, koff refers to the rate constant with which the complex falls apart. The low end stands for slow dissociation, the high end for fast dissociation. For orientation: kon means a measure of how fast the partners come together. Low values mean slower complex formation, high ones faster complex formation.

Assay [1] addresses T1, mouse vascular endothelial growth factor receptor-2 Fc chimera (Flk-1-Fc) (mouse, UniProt P35918 20-762).
T1 construct: purchased from R&D Systems; also called mouse VEGF-R2-Fc; not shown: Fc part of the purchased chimera
Kind of assay: SPR (BIAcore), target immobilized. The method, then:
In vitro affinity measurements were made using surface plasmon resonance (SPR) (BIAcore) with both the human and mouse VEGF-receptor target proteins immobilized via amide chemistry on the BIAcore chip.
The binding kinetics of fibronectin-based scaffold proteins binding proteins to the target was measured using BIAcore 2000 biosensor (Pharmacia Biosensor). Human and mouse VEGF-R2-Fc fusions were immobilized onto a CM5 sensor chip and soluble binding proteins were injected at concentrations ranging from 0 to 100 nM in buffer 0 (10 mM HEPES, 150 mM NaCl, 0.005% Tween 20, pH 7.4). Sensorgrams were obtained at each concentration and were evaluated using a program, BIA Evaluation 2.0 (BIAcore), to determine the rate constants kₐ (kₒₙ) and kd (koff.) The affinity constant, KD was calculated from the ratio of rate constants […].
T1 sequence (P35918 20-762, change not shown): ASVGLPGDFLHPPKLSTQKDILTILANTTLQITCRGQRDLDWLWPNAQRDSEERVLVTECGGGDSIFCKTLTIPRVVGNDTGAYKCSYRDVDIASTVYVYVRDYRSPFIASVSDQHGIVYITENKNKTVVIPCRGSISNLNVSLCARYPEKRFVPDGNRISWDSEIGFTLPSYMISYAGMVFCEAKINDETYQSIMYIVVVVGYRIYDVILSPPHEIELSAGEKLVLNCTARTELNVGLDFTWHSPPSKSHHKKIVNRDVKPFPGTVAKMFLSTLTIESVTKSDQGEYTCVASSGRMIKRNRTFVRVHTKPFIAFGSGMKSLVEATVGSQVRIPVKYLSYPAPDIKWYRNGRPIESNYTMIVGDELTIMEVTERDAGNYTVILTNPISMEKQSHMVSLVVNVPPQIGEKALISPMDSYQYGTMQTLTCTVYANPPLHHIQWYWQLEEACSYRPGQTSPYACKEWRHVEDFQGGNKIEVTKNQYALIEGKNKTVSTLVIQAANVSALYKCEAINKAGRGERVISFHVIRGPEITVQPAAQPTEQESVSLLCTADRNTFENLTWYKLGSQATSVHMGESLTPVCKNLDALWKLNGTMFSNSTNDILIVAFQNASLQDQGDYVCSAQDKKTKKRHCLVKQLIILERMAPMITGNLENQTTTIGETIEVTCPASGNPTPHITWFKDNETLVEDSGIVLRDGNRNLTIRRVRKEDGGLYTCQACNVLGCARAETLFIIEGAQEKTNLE

Assay [2] has as its target T2, human vascular endothelial growth factor receptor-2 Fc chimera (KDR-Fc) (human, UniProt P35968 20-764).
T2 construct: range 1-764; also called human VEGFR-2; hKDR; not shown: human IgG1 Fc
Kind of assay: radioactive equilibrium binding (assay not given). Here is the method: (§1) To prepare ³⁵S-labeled binding proteins for analysis, mRNA was prepared as described above for RNA-protein fusion production but the linker ligation step was omitted. The mRNA was expressed using rabbit reticulocyte lysate translation kit (Ambion) in the presence of ³⁵S-labeled Met at 30° C. for 1 hour. Expressed protein was purified on M2-agarose Flag beads (Sigma) as described above. This procedure produced the encoded protein without the nucleic acid tail. In a direct binding assay, VEGF-R2-Fc fusions in concentrations ranging from 0 to 200 nM were added to a constant concentration of the purified protein (0.2 or 0.5 nM) and incubated at 30° C. for 1 hour in buffer B. The receptor-binder complexes were captured using Protein A magnetic beads for another 10 minutes at room temperature using a Kingfisher™ The beads were washed with six reaction volumes of buffer B. The protein was eluted from the beads with 100 μL of 0.1 M KOH. […] of the reaction mixture and elution were dried onto a LumaPlate-96 (Packard) and the amount of ³⁵S on the plate was measured using a TopCount NXT instrument (Packard). The amount of fibronectin-based scaffold protein bound to the target was estimated as a percent of radioactivity eluted from Protein A magnetic beads compare to radioactivity in the reaction mixture. Nonspecific binding of fibronectin-based scaffold proteins to the beads was determined by measuring binding in the absence of KDR-Fc and represented less than 1-2% of the input. Specific binding was obtained through subtraction of nonspecific binding from total binding. Data was analyzed using the GraphPad Prizm software (GraphPad Software, Inc, San Diego, Calif.), fitted using a one site, non-linear binding equation.
T2 sequence (P35968 20-764 limits assumed, change not shown, form in doubt): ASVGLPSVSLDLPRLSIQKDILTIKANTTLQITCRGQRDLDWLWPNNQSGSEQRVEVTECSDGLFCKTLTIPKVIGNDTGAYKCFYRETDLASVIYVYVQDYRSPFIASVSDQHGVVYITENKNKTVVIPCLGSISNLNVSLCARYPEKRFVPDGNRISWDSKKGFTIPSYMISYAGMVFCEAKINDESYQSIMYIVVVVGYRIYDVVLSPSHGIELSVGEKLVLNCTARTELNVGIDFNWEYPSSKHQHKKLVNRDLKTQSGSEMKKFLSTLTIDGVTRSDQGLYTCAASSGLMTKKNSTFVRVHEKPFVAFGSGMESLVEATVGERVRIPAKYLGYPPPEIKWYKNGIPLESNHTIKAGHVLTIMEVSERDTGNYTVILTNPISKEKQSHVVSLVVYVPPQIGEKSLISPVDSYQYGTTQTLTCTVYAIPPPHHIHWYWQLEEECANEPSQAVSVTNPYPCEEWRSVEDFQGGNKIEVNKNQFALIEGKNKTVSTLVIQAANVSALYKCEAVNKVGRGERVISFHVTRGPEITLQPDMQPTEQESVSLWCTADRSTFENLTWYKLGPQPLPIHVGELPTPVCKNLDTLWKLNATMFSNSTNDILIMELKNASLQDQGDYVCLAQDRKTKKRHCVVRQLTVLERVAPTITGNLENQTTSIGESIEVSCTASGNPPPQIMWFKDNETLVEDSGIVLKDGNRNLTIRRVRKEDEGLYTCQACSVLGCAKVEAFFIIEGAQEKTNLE

Assay [3] has as its target T3, mouse vascular endothelial growth factor receptor-2 Fc chimera (Flk-1-Fc) (mouse, UniProt P35918 20-762).
T3 construct: Purchased from R&D Systems; also called mouse VEGF-R2; not shown: Fc part of the purchased chimera
Kind of assay: radioactive equilibrium binding (assay not given). Here is the method:
as §1
T3 sequence (P35918 20-762, change not shown): as the sequence (P35918 20-762, change not shown) above

Assay [4] addresses T2, human vascular endothelial growth …. Kind of assay: binding to 1 nM KDR-Fc, % of input; radioactive equilibrium binding (assay not given). Here is the method: as §1
In assay [5] the target is T3, mouse vascular endothelial growth …. Kind of assay: binding to 1 nM Flk-1-Fc, % of input; radioactive equilibrium binding (assay not given). Here is the method:
as §1

Assay [6] has as its target T4, human vascular endothelial growth factor receptor-2 Fc chimera (KDR-Fc) (human, UniProt P35968 20-764).
T4 construct: range 1-764; purchased from R&D Systems; also called hKDR; human VEGF-R2-Fc; not shown: human IgG1 Fc
Kind of assay: radioactive equilibrium binding assay, KDR-Fc. The method, then:
as §1
T4 sequence (P35968 20-764 limits assumed, change not shown, form in doubt): as the sequence (P35968 20-764 limits assumed, change not shown, form in doubt) above

The target in assay [7] is T5, human vascular endothelial growth factor receptor-2 Fc chimera (KDR-Fc) (human, UniProt P35968 20-764).
T5 construct: range 1-764; also called human VEGFR-2; not shown: human IgG1 Fc
Kind of assay: radioactive equilibrium binding assay, KDR-Fc. The method, then: as §1
T5 sequence (P35968 20-764 limits assumed, change not shown, form in doubt): as above

The target of assay [8] is T5, human vascular endothelial growth …. Kind of assay: radioactive equilibrium binding assay, 1 nM KDR-Fc, % of input bound. The gist of the method:
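³⁵S-Met-labeled binder protein, made by reticulocyte-lysate translation and Flag-purified, held at 0.2 or 0.5 nM with receptor-Fc (0–200 nM) for 1 h at 30° C in buffer B. Complexes captured on Protein A beads, washed, KOH-eluted. Bound signal given as % of input radioactivity minus bead-only background; one-site fit.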

The target of assay [9] is T6, mouse vascular endothelial growth factor receptor-2 Fc chimera (Flk-1-Fc) (mouse, UniProt P35918 20-762).
T6 construct: Bought from R&D Systems; also called mouse VEGFR-2; not shown: Fc part of the purchased chimera, not specified
In words: radioactive equilibrium binding assay, Flk-1-Fc. Here is the method: as §1
T6 sequence (P35918 20-762, change not shown): as the sequence (P35918 20-762, change not shown) above

Assay [10] has as its target T6, mouse vascular endothelial growth …. Kind of assay: radioactive equilibrium binding assay, 1 nM Flk-1-Fc, % of input bound. The method in brief: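 Tracer: ³⁵S-Met protein from reticulocyte lysate, Flag-bead purified, no nucleic acid tail. 0.2/0.5 nM binder + 0–200 nM receptor-Fc, 30° C 1 h, buffer B; Protein A bead capture 10 min RT; 0.1 M KOH elution; scintillation count.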

Where only a bound is given, the exact number is not on record here.

B1: M5FL-PEG40 (designed binder)
chain: MGVSDVPRDLEVVAATPTSLLISWRHPHFPTRYYRITYGETGGNSPVQEFTVPLQPPLATISGLKPGVDYTITVYAVTKERNGRELFTPISINYRTEIDKPCQHHHHHH
modifications: branched 40 kD PEG coupled by maleimide chemistry to the cysteine residue at position 100
notes: also called M5FL 40K PEG
On to B1, for which, in [1], the dissociation constant Kd was determined as 57.1 nM, the koff stood at 0.00054 s⁻¹ and the kon stood at 10000 M⁻¹ s⁻¹.

B2: E5 (designed binder)
chain: EVVAATPTSLLISWRHPHFPTRYYRITYGETGGNSPVQEFTVPLQPPTATISGLKPGVDYTITGYAVTDGQNGRLLNVPISINYRT
notes: Del 1-8 10Fn3 clone; Flag tag of the radioactive-assay form not included
In the case of B2, the Kd in [2] worked out at 0.4 nM; in [3], 3.2 nM. The “Binding to 1 nM KDR, %” value in assay [4] came out at 26%. The “Binding to 1 nM FLK, %” value in [5] is 10%.

B3: K9 (designed binder)
chain: EVVAATPTSLLISWRHPHFPTRYYRITYGETGGNSPVQEFTVPLQPPTATISGLKPGVDYTITGYAVTFGLYGKELLIPISINYRT
notes: tag left out
B3: in [6], the Kd was < 1.8 nM.

B4: E25 (designed binder)
chain: EVVAATPTSLLISWRHPHFPTRYYRITYGETGGNSPVQEFTVPLQPPTATISGLKPGVDYTITGYAVTLERNGRELMTPISINYRT
notes: 10Fn3 clone, Del 1-8
As to B4, the Kd in [7] is 1.58 nM; in [9], 1.3 nM. Moreover, the “Binding to 1 nM KDR, %” value in assay [8] came to 41%. For the same molecule, in assay [10], the “Binding to 1 nM Flk-1, %” value amounted to 28%.

B5: E28 (designed binder)
chain: EVVAATPTSLLISWRHPHFPTRYYRITYGETGGNSPVQEFTVPLQPPTATISGLKPGVDYTITGYAVTLERNGRELMVPISINYRT
notes: 10Fn3 clone, Del 1-8
As for B5, the equilibrium dissociation constant (Kd) in [7] worked out at 1.63 nM; in assay [9] it was 2.1 nM. Also, the “Binding to 1 nM KDR, %” value in assay [8] turned out to be 19%. Also, the “Binding to 1 nM Flk-1, %” value in assay [10] was 21%.

B6: K6 (designed binder)
chain: EVVAATPTSLLISWRHPHFPTRYYRITYGETGGNSPVQEFTVPLQPPTATISGLKPGVDYTITGYAVTDGKDGRVLLTPISINYRT
notes: tag left out
Turning to B6, the Kd in assay [6] is < 0.9 nM.

B7: E28 (designed binder)
chain: EVVAATPTSLLISWRHPHFPTRYYRITYGETGGNSPVQEFTVPLQPPTATISGLKPGVDYTITGYAVTLERNGRELMVPISINYRT
notes: as for B2
For the molecule B7, the dissociation constant Kd in assay [2] came out at 1.63 nM; in [3], 2.1 nM. The “Binding to 1 nM KDR, %” value in [4] stood at 19%. In assay [5], the “Binding to 1 nM FLK, %” value came to 21%.

B8: E3 (designed binder)
chain: EVVAATPTSLLISWRHPHFPTRYYRITYGETGGNSPVQEFTVPLQPPTATISGLKPGVDYTITGYAVTDGRNDRKLMVPISINYRT
notes: as for B2
As to B8, the dissociation constant (Kd) in assay [2] worked out at 0.96 nM; in assay [3], 5.4 nM. Also, the “Binding to 1 nM KDR, %” value in [4] worked out at 37%. For the same molecule, the “Binding to 1 nM FLK, %” value in assay [5] is 14%.

B9: K10 (designed binder)
chain: EVVAATPTSLLISWRHPHFPTRYYRITYGETGGNSPVQEFTVPLQPPTATISGLKPGVDYTITGYAVTTGPNDRLLFVPISINYRT
notes: tag left out
B9: the Kd in [6] is < 0.6 nM.

B10: K12 (designed binder)
chain: EVVAATPTSLLISWRHPHFPTRYYRITYGETGGNSPVQEFTVPLQPPTATISGLKPGVDYTITGYAVTDVYNDHEIKTPISINYRT
notes: tag left out
As for B10, the Kd in assay [6] was < 0.6 nM.

B11: K13 (designed binder)
chain: EVVAATPTSLLISWRHPHFPTRYYRITYGETGGNSPVQEFTVPLQPPTATISGLKPGVDYTITGYAVTLALKGHELLTPISINYRT
notes: tag left out
Regarding B11, the Kd in [6] is < 0.6 nM.

B12: K14 (designed binder)
chain: EVVAATPTSLLISWRHPHFPTRYYRITYGETGGNSPVQEFTVPLQPPTATISGLKPGVDYTITGYAVTREENDHELLIPISINYRT
notes: tag left out
Turning to B12, the Kd in [6] is < 0.6 nM.

B13: E29 (designed binder)
chain: EVVAATPTSLLISWRHPHFPTRYYRITYGETGGNSPVQEFTVPLQPPTATISGLKPGVDYTITGYAVTVERNGRVLMTPISINYRT
notes: 10Fn3 clone, Del 1-8
B13: the Kd in assay [7] was determined as 1.51 nM; in assay [9] it was 0.91 nM. In [8], the “Binding to 1 nM KDR, %” value came out at 41%. Further, in assay [10], the “Binding to 1 nM Flk-1, %” value is 44%.

B14: E9 (designed binder)
chain: EVVAATPTSLLISWRHPHFPTRYYRITYGETGGNSPVQEFTVPLQPPTATISGLKPGVDYTITGYAVTEERNGRTLRTPISINYRT
notes: as for B2
As to B14, the dissociation constant Kd in assay [2] worked out at 2.37 nM; in [3], 1.4 nM. Besides, the “Binding to 1 nM KDR, %” value in assay [4] stood at 24%. Besides, in [5], the “Binding to 1 nM FLK, %” value was determined as 34%.

B15: K1 (designed binder)
chain: EVVAATPTSLLISWRHPHFPTRYYRITYGETGGNSPVQEFTVPLQPPTATISGLKPGVDYTITGYAVTMGLYGHELLTPISINYRT
notes: tag left out
Consider B15, for which the Kd in [6] was < 0.6 nM.

B16: E25 (designed binder)
chain: EVVAATPTSLLISWRHPHFPTRYYRITYGETGGNSPVQEFTVPLQPPTATISGLKPGVDYTITGYAVTLERNGRELMTPISINYRT
notes: as for B2
For the molecule B16, the Kd in [2] amounted to 1.58 nM; in [3], 1.3 nM. The “Binding to 1 nM KDR, %” value in assay [4] is 41%. In addition, in [5], the “Binding to 1 nM FLK, %” value stood at 28%.

B17: E9 (designed binder)
chain: EVVAATPTSLLISWRHPHFPTRYYRITYGETGGNSPVQEFTVPLQPPTATISGLKPGVDYTITGYAVTEERNGRTLRTPISINYRT
notes: 10Fn3 clone, Del 1-8
In the case of B17, the dissociation constant (Kd) in assay [7] was 2.37 nM; in assay [9], 1.4 nM. Also, the “Binding to 1 nM KDR, %” value in [8] is 24%. Further, in assay [10], the “Binding to 1 nM Flk-1, %” value stood at 34%.

B18: K15 (designed binder)
chain: EVVAATPTSLLISWRHPHFPTRYYRITYGETGGNSPVQEFTVPLQPPTATISGLKPGVDYTITGYAVTEVHHDREIKTPISINYRT
notes: tag left out
With B18, in assay [6], the Kd is < 0.4 nM.

B19: E18 (designed binder)
chain: EVVAATPTSLLISWRHPHFPTRYYRITYGETGGNSPVQEFTVPLQPPTATISGLKPGVDYTITGYAVTVERNGRELNTPISINYRT
notes: 10Fn3 clone, Del 1-8
Consider B19, for which the values for the dissociation constant Kd in assay [7] and in assay [9] were 1.2 nM and 0.53 nM, respectively. Besides, in assay [8], the “Binding to 1 nM KDR, %” value worked out at 17%. Besides, the “Binding to 1 nM Flk-1, %” value in assay [10] was found to be 29%.

B20: E19 (designed binder)
chain: EVVAATPTSLLISWRHPHFPTRYYRITYGETGGNSPVQEFTVPLQPPTATISGLKPGVDYTITGYAVTVERNGRHLMTPISINYRT
notes: 10Fn3 clone, Del 1-8
B20: the Kd worked out at 1.3 nM in [7] and 0.66 nM in assay [9]. For the same molecule, in assay [8], the “Binding to 1 nM KDR, %” value turned out to be 38%. Also, in assay [10], the “Binding to 1 nM Flk-1, %” value was determined as 40%.
